Key:
lamp2_rat Lamp2 = lamp2_rat Lamp2 (UniProt P17046)
lamp2_human LAMP2 [1] = molecular target: lamp2_human LAMP2 (UniProt P13473)
lamp2_human LAMP2 [2] = molecular target: lamp2_human LAMP2 (UniProt P13473); remark: listed apart in the source

Sequence of lamp2_human LAMP2 (P13473 whole entry): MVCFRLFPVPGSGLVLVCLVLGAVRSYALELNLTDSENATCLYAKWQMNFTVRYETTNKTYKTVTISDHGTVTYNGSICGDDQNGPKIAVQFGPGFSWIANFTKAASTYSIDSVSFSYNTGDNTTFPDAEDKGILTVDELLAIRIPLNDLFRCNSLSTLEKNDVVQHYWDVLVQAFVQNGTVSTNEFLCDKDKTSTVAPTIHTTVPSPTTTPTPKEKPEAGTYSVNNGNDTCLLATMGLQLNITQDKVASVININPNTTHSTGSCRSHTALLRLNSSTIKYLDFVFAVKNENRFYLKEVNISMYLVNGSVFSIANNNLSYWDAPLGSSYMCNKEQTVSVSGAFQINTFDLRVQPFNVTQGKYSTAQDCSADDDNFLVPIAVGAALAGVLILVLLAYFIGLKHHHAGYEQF
Sequence of lamp2_rat Lamp2 (P17046 whole entry): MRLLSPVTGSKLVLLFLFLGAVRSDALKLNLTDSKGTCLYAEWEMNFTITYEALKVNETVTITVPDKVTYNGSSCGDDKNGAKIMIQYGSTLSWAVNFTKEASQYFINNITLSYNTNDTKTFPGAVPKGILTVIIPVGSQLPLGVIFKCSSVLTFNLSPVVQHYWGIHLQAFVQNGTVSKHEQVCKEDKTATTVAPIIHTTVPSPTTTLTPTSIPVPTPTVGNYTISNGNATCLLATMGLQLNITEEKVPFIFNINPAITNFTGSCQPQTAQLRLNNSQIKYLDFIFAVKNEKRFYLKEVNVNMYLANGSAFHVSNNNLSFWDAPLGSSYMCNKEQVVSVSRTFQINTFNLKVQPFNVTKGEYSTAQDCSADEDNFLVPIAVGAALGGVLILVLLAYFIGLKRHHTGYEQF

Substance	effect of a mutation on the interaction (lamp2_rat Lamp2)	effect of a mutation on the interaction (lamp2_human LAMP2 [1])	effect of a mutation on the interaction (lamp2_human LAMP2 [2])
Leucine-rich repeat serine/threonine-protein kinase 2 (Homo sapiens), Q5S007 G2019S	increasing interaction	increasing interaction	–
Leucine-rich repeat serine/threonine-protein kinase 2 (Homo sapiens), Q5S007 R1441C	increasing interaction	–	increasing interaction

Reference: IntAct's records for PubMed 23455607
